Results published in article PMC3253120 (PLoS ONE, 2012).

B1: ciA-H4 (VHH)
VHH: SGGGLVQSGGSLRLSCAASVLTLEYYAIGWFRQAPGKEREGISCTGSSGGSTVYIDSVKGRFTVVRDNAKNMVYLQMDSLQPEDTAVYYCAADDLRCGRGWSSYFRGSWGQGTQVTVSS
notes: also called JEC-3; source: E. coli, purified as a thioredoxin fusion protein
B2: ciA-D1 (VHH)
VHH: QVQLVESGGGLVQPGGSLRLSCATSGFTLEYYAIGWFRQAPGKGREGVACMNSSGGGTNYADSVKGRFTISRDNAKKMVYLQMNSLKSEDTAVYYCVVDDFRCGSRWAAYLRSSWGQGTQVTVSS
notes: also called JDT-2; source: E. coli, purified as a thioredoxin fusion protein
B3: ciA-H11 (VHH)
VHH: QVQLVESGGGLVQPGGSLRLSCTASTLTLNYYAIGWFRQAPGKEREGVSCTGSSGGSTVYIDSVKGRFTVVRDNAKNMVYLQMDSLQPEDTAVYYCAADDLRCGRGWSSYFRGSWGQGTQVTVSS
notes: also called JEC-11; source: E. coli, purified as a thioredoxin fusion protein

Target: purified recombinant BoNT/A light chain (Lc) (Clostridium botulinum)
Experiment: ELISA
Details: both partners purified

Binder	binding result
B1	binds
B2	binds
B3	binds
